From the nanobody polyreactivity screen of Harvey et al. (2022) come the findings set out here.

This series is described as follows: yeast display, Sf9 membrane polyspecificity reagent, FACS + sequencing; frameworks hold sequencing errors. The gist of the method:
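Nanobodies came from a synthetic yeast display library in Saccharomyces cerevisiae BJ5465, induced with galactose for 36–48 hours and stained for 1 hour at 4 °C with 10% biotinylated, detergent-solubilized Sf9 membrane reagent. Cells were enriched on streptavidin microbeads and then FACS-sorted, with low and high (top ~1%) gates set on anti-HA fluorescence for expression and streptavidin fluorescence for reagent binding. Each polyreactivity label reflects the gate a clone came from. Genes were amplified by colony PCR, sequenced by MiSeq 2 × 250 and filtered by CDR length.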
For “QVQLVESGGGLVQAGGSLRLSCAASGRIFTQYAMGWYRQAPGKERELVAAISYGGGTTHYADSVKGRFTISRDNAKNTVYLQMNSLKPEDTAVYYCAADGGRQVYTQLYDYWGQGTQVTVSS”, the “polyreactivity (PSR sort gate)” value is on record as “low polyreactivity”. The same measure for “QVQLVESGGGLVQAGGSLRLSCAASGRIFTRNAMGWYRQAPGKEREFVAAISYRGGSTYYADSVKGRFTISRDYAKNTVYLQMNSLKPEDTAVYYCAAEPYIQWVYYGGNGRRYGYWGQGTQVTVSS”: “high polyreactivity”; for “QVQLVESGGGLVQAGGSLRLSCAASGRIFTRNAMGWYRQAPGKERELVAAITSGGSTNYADSVKGRFTISRDNAKNTVYLQMNSLKPEDTAVYYCNAVYYPYRIWGRVRPSYGYWGQGTQVTVSS”: “high polyreactivity”; for “QVQLVESGGGLVQAGGSLRLSCAASGRIFTRNTMGWYRQAPGKERELVAAITSRGGSTYYADSVKGRFTISRDNAKITVYLQMNSLKPEETAVYYCAADIPRYYYYWGQGTQVTVSS”: “high polyreactivity”. Regarding “QVQLVESGGGLVQAGGSLRLSCAASGRIFTRYAMGWYRQAPGKERELVAAINYRGSSTYYADSVKGRFTISRDNAKNTVYLQMNSLKPEDTAVYYCNTYGQTDTYWRYYYWGQGTQVTVSS”, the “polyreactivity (PSR sort gate)” value is “high polyreactivity”.

Take “QVQLVESGGGLVQAGGSLRLSCAASGRIFTRYAMGWYRQAPGKERELVAAITGSGGSTYYADSVKGRFTISRDNAKNTVYLQMNSLKPEDTAVYYCNKVTGRNADRYGYWGQGTQVTVSS”: the “polyreactivity (PSR sort gate)” value is given as “high polyreactivity”. The same measure for “QVQLVESGGGLVQAGGSLRLSCAASGRIFTRYAMGWYRQAPWKERELVAVITRSGGSTYYADSVKGRFTISRDNAKNTVYFKMNSLIPEDTAVYYCAVRPYELHRLADQPGGDDYWGQGTQVTVSS”: “low polyreactivity”; for “QVQLVESGGGLVQAGGSLRLSCAASGRIFTSNTMGWYRQAPGKERELVAAITWRVGSTYYADSVKGRFTISRDNAKNTVYLQMNSLKPEDTAVYYCNAVVLHVTTDNSTFTTDDYWGQGTQVTVSS”: “low polyreactivity”.

For “QVQLVESGGGLVQAGGSLRLSCAASGRIFTSYAMGWYRQAPGKERELVAAINRGGSTYYADSVKGRFTISRDNAKNTVYLQMNSLKPEDTAVYYCAAGTRSRAPYYRTIVDTYGYWGQGTQVTVSS”, the “polyreactivity (PSR sort gate)” value was “low polyreactivity”.

For the sequence “QVQLVESGGGLVQAGGSLRLSCAASGRIFTSYAMGWYRQAPGKERELVAAISGSSASTYYADSVKGRFTISRDNAKNTVYLQMNSLKPEDTAVYYCAAYKYDYRVDTGYDYWGQGTQVTVSS”, the “polyreactivity (PSR sort gate)” value is reported as “low polyreactivity”. Take “QVQLVESGGGLVQAGGSLRLSCAASGRIFTTYAMGWYRQAPGKERELVAAISRSGGSTYYADSVKGRFTISRDNAKNSVYLQMNSLKPEDTAVYYCAAVPTSNSFRSSFYYWGQGTQVTVSS”: the “polyreactivity (PSR sort gate)” value is given as “high polyreactivity”. For “QVQLVESGGGLVQAGGSLRLSCAASGRIFTTYAMGWYRQAPGKERELVARISSGGTTYYADSVKGRFTISRDNAKNTVYLQMNSLKPEDTAVYYCNVRAVTPTRSRPFRYDYWGQGTQVTVSS”, the “polyreactivity (PSR sort gate)” value was “high polyreactivity”. The value for “QVQLVESGGGLVQAGGSLRLSCAASGRIFTWNAMGWYRQAPGKERDLVARISSGTRTNYADSVKGRFTISRDNAKNTVYLQMNSLKPEDTAVYYCAAQSRPPFVKQYWWQRDYWGQGTQVTVSS” was “high polyreactivity”; that for “QVQLVESGGGLVQAGGSLRLSCAASGRIFTWNAMGWYRQAPGKERELVATINRGGNTNYADSVKGRFTISRDNAKNTVYLQMNSLKPEDTAVYYCAARYHYSNLYRFAYGYWGQGTQVTVSS” was “high polyreactivity”. Turning to “QVQLVESGGGLVQAGGSLRLSCAASGRIFTYMGWYRQAPGKERELVAGISWRGTSTYYADSVKGRFTISRDNAKNTVYLQMNSLKPEDTAVYYCAAPWAYHVRGDYWGQGTQVTVSS”, the “polyreactivity (PSR sort gate)” value is “low polyreactivity”. The same measure for “QVQLVESGGGLVQAGGSLRLSCAASGRIFTYNAMGWYRQAPGKERELVAVITSGGSTYYADSVKGRFTISRDNAKNTVYLQMNSLKPEDTAVYYCAARVWGSSQYYYWGQGTQVTVSS”: “low polyreactivity”; for “QVQLVESGGGLVQAGGSLRLSCAASGRIFTYYAMGWYRQAPGKERELVAAITWSGTGTYYADSVKGRFTISRDNAKNTVYLQMNSLKPEDTAVYYCNRRHALASSYYYWGQGTQVTVSS”: “low polyreactivity”; for “QVQLVESGGGLVQAGGSLRLSCAASGRIFTYYAMGWYRQAPGKERELVASITGSGGSTDYADSVKGRFTISRDNAKNTVYLQMNSLKPEDTAVYYCAADHSGVSRYDYWGQGTQVTVSS”: “low polyreactivity”. As to “QVQLVESGGGLVQAGGSLRLSCAASGRIFVANGLGWYRQAPGKERELVAAITWSGDNTYYADSVKGRFTISRDNAKNTVYLQMNSLKPEDTAVYYCATPRSWYFPYGYWGQGTQVTVSS”, the “polyreactivity (PSR sort gate)” value is listed as “high polyreactivity”. The same measure for “QVQLVESGGGLVQAGGSLRLSCAASGRIFVAYTMGWYRQAPGKERELVAAISTNGGRTYYADSVKGRFTISRDNAKNTVYLQMNSLKPEDTAVYYCAAYRGPRADYYWGQGTQVTVSS”: “high polyreactivity”; for “QVQLVESGGGLVQAGGSLRLSCAASGRIFVDNTMGWYRQAPGKEREFVAVISTSGGRTSYADSVKGRFTISRDNAKNTVYLQMNSLKPEDTAVYYCNALYGRYGWSKNYYWGQGTQVTVSS”: “high polyreactivity”. As to “QVQLVESGGGLVQAGGSLRLSCAASGRIFVDYAMGWERQAPGKERELVAAITYGGGSTHYADSVKGRFTISRDNAKNTVYLQMNSLKPEDTAVYYCAADLFYHSYGYEYWGQGTQGTVSS”, the “polyreactivity (PSR sort gate)” value was “low polyreactivity”. The value for “QVQLVESGGGLVQAGGSLRLSCAASGRIFVENAMGWYRQAPRKERELVAAITSRGGSTYYADSVKGRFTISRDNAKNTVYLQMNSLKPEDTAVYYCNAGKYSRFLYDHNYWGQGTQVTVSS” was “high polyreactivity”; that for “QVQLVESGGGLVQAGGSLRLSCAASGRIFVFNAMGWYRQAPGKERELVATIDRGGSTNYADSVKGRFTISRDNAKNTVYLQMNSLKPEDTAVYYCAAGVVGKRSRTGYYWGQGTQVTVSS” was “low polyreactivity”; that for “QVQLVESGGGLVQAGGSLRLSCAASGRIFVFYVMGWYRQAPGKERELVAAITRTGGSTYYADSVKGRFTISRDNAKNTVYLQMNSLKPEDTAVYYCATRYTRLRHFDYWGQGTQVTVSS” was “low polyreactivity”.

As to “QVQLVESGGGLVQAGGSLRLSCAASGRIFVGNAMGWYRQAPGKEWALVAANSGSGDSTYYADSVKGRFTISRDNAKNTVYLQMISLKPEDTAVYYCNVDYDFVIYYYWYYPGYDYWGQGTQVTVSS”, the “polyreactivity (PSR sort gate)” value was “low polyreactivity”.

Consider “QVQLVESGGGLVQAGGSLRLSCAASGRIFVGYAMVWYRQAPGKERELVAGISRSGDSTYYADSVKGRFTISRDNAKNTVYLQMNSLKPEDTAVYYCAARIIYWGYYYWGQGTQVTVSS”, for which the “polyreactivity (PSR sort gate)” value is on record as “high polyreactivity”. Take “QVQLVESGGGLVQAGGSLRLSCAASGRIFVHYVMGWYRQAPGKERELVAAISRSGGRTYYADSVKGRFTISRDNAKNTVYLQMNSLKPEDTAVYYCATDASTYKYDYWGQGTQVTVSS”: the “polyreactivity (PSR sort gate)” value was “high polyreactivity”. “QVQLVESGGGLVQAGGSLRLSCAASGRIFVIYAKGWYRQAPGKERELVAVISSDGSTYYADSVKGRFTISRDNAKNTVYLQMNSLKPEDTAVYYCAADRIGRYRPYIGWVVRSYYWGQGTQVTVSS”: the “polyreactivity (PSR sort gate)” value is on record as “low polyreactivity”. The same measure for “QVQLVESGGGLVQAGGSLRLSCAASGRIFVIYAMGWYRQAPGKERELVAVINDDGSTNYADSVKGRFTISRDNAKNTVYLQMNSLKPEDSAVYYCNAVYYSYRYGHDYWGQGTQVTVSS”: “low polyreactivity”; for “QVQLVESGGGLVQAGGSLRLSCAASGRIFVKNAMGWNRQAPGKESELVAAISASGGSTYYADSVKGRFTISRDNAKNTVDLQMNSLKPEDTAVYYCAARRRAFGSTYNYWGQGTQVTVSS”: “high polyreactivity”; for “QVQLVESGGGLVQAGGSLRLSCAASGRIFVKNAMGWYIQAPGKERELVAAISASGGSTYYADSVKGRFTISRDYSKNTVYLQMNSLKPEYTAVYYCARVLRRRYLSEFDYWGQGTQVTVSS”: “high polyreactivity”. For the sequence “QVQLVESGGGLVQAGGSLRLSCAASGRIFVKNAMGWYRQAPGKERELVATISSGGNTNYADSVKGRFTISRDNAKNTVYLQLNSLKPEDTAVYYCAAVWDLGDYELPYDYWGQGTQVTVSS”, the “polyreactivity (PSR sort gate)” value was “low polyreactivity”. With “QVQLVESGGGLVQAGGSLRLSCAASGRIFVKNTMGLYRQAPGKERELVAAISWYGGSTYYADSVKGRFTISRDNAMNTVYLQMNSLKPEDTAFYYCAAATWQWPWYDYWGQGTKVTVSS”, the “polyreactivity (PSR sort gate)” value is recorded as “high polyreactivity”. The same measure for “QVQLVESGGGLVQAGGSLRLSCAASGRIFVKYVIGWYRQAPGKERELVAAISSSGGRTYYADSVKGRFTISRDNAKNTVYLQMNSLKPEDTAVYYCAASFRRIYVSGLGGPFDYWGQGTQVNVSS”: “high polyreactivity”; for “QVQLVESGGGLVQAGGSLRLSCAASGRIFVNNAMGWYRQAPGKERELVATITSGGSTYYADSVKGRFTISRDNAKNTVYLQMNSLKPEDSAVYYCAARRWYVHYFAYGYWGQGTQVTVSS”: “low polyreactivity”; for “QVQLVESGGGLVQAGGSLRLSCAASGRIFVPNNMGWYRQAPGKERDLVAAISSGGSTYADSVKGRFTISRDNAKNTFYLQLNSLKPEDTAVYYCAVGKYGTQFTQWVRKYDYWGQGTQVTVSS”: “low polyreactivity”.

Take “QVQLVESGGGLVQAGGSLRLSCAASGRIFVQNAMGWYRQAPGKERELVAAISASGGRTSYADSVKGRFTISRDNAKNTVYLQMNSLKPEDTAVYYCAALFRVYPLTKKYGYWGQGTQVTVSS”: the “polyreactivity (PSR sort gate)” value was “high polyreactivity”. The same measure for “QVQLVESGGGLVQAGGSLRLSCAASGRIFVQNAMGWYRQAPGKERELVAAISISGARTYYADSVKGRFTISRDNAKNTVYLQMNSLKPEDTAVYYCNASYRDEDDYWGQGTQVTVSS”: “high polyreactivity”. Take “QVQLVESGGGLVQAGGSLRLSCAASGRIFVQYAMGWYRQAPGKERELVAAISKSGVRTFYADSVKGRFTISRDNAKNTVYLQMNSLKPEDTAVYYCNKAYRVGRTEFNYWGQGTQVTVSS”: the “polyreactivity (PSR sort gate)” value is recorded as “high polyreactivity”.
